Data on nine molecules can be found in PMC13138739, “Broadly conserved protective epitopes on the lyme disease vaccine antigen, OspA” (PLOS Pathogens, 2026).

The term Kd denotes the concentration at which binding is half-saturated.

The target of assay [1] is T1, OspA ST1 (B. burgdorferi B31 allele) on the B. burgdorferi HB19-R1 reporter strain (Borrelia burgdorferi B31 (OspA ST1), UniProt P0CL66).
T1 construct: OspA of B. burgdorferi B31 (ST1), lipoprotein on the cell surface; a second wild type ST1 plasmid with silent mutations was used beside the residue 107 mutants; same protein; also called HB19-R1 OspAST1 reporter; source: B. burgdorferi HB19-R1 (lacks ospA), reporter plasmid pGW217, native ospAB promoter, on live cells
Description: flow cytometry on cells; live B. burgdorferi HB19-R1 reporter strains expressing OspA ST1-7, 10 µg/ml mAb, Alexa 647-labeled goat anti-human IgG. The note with it: one partner purified. For orientation: A flow cytometer gives signals particle by particle.

Assay [2] deals with T2, OspA ST2 (B. afzelii PKo allele) on the B. burgdorferi HB19-R1 reporter strain (Borrelia afzelii PKo (OspA ST2), UniProt P0A3N7).
T2 construct: OspA of B. afzelii PKo (ST2); source: B. burgdorferi HB19-R1 (lacks ospA), reporter plasmid, native ospAB promoter of B31, on live cells
The description is as above. The note with it: one partner purified.

Assay [3] has as its target OspA ST3 (B. garinii PBr allele) on the B. burgdorferi HB19-R1 reporter strain (Borrelia garinii PBr (OspA ST3), UniProt B8F1J0, strain). Described as above. The note with it: one partner purified.
Assay [4] concerns the target T3, OspA ST4 (B. bavariensis PBi allele) on the B. burgdorferi HB19-R1 reporter strain (Borrelia bavariensis PBi (OspA ST4), UniProt Q6LBF1, strain).
T3 construct: OspA of B. bavariensis PBi (ST4); source: B. burgdorferi HB19-R1 (lacks ospA), reporter plasmid, native ospAB promoter of B31, on live cells
The description is as above. The note with it: one partner purified.

For assay [5], the target named is T4, Recombinant OspAST1 (residues 18–273) from B. burgdorferi B31 (Borrelia burgdorferi B31 (OspA ST1), UniProt P0CL66).
T4 construct: source: tags removed with TEV protease; not shown: deca-histidine, N-terminal, cleaved; SUMO, N-terminal, cleaved
Description: BLI; Octet RED96e; mAb captured on AHC sensors (0.4 µg/mL, 5 min), dipped into non-lipidated OspA 21.58 nM to 0.089 nM (10 min), dissociation 30 min; 0.1% BSA in PBS, 0.01% Tween20; global 1:1 model. As to conditions: both partners purified. On the technique in general: Biolayer interferometry detects binding as a change in optical thickness at a sensor tip.

Assay [6] concerns the target T5, Recombinant non-lipidated OspA serotype 2 (Borrelia afzelii (OspA ST2; strain not …, UniProt P0A3N7).
T5 construct: OspA serotype 2, non-lipidated; also called recombinant OspA ST2; ST 2; source: E. coli, purified; provided by Dr. Meredith Finn (Moderna)
Description: microsphere immunoassay (MIA); recombinant non-lipidated OspA ST 1-7 coupled to Magplex-C microspheres, serial dilutions of mAb, 1 x PBS, 2% BSA, pH 7.4, room temperature 1 hr, PE anti-human IgG Fc. The note with it: both partners purified.

Assay [7] concerns the target T6, Recombinant non-lipidated OspA serotype 4 (Borrelia bavariensis (OspA ST4; strain …, UniProt Q6LBF1, strain).
T6 construct: OspA serotype 4, non-lipidated; also called recombinant OspA ST4; ST 4; source: E. coli, purified; provided by Dr. Meredith Finn (Moderna)
Described as above. As to conditions: both partners purified.

Assay [8] deals with T7, Native OspA ST2 on B. afzelii Pko (Borrelia afzelii PKo (OspA ST2), UniProt P0A3N7).
T7 construct: native OspA (ST2) on the bacterial surface of the primary isolate; also called ST 2- B. afzelii Pko; source: endogenous, on live B. afzelii Pko
Description: flow cytometry on cells; live Borrelia primary isolates with native OspA ST1-7, 10 µg/ml mAb, Alexa 647-labeled goat anti-human IgG. As to conditions: one partner purified.

Assay [9] concerns the target T8, Native OspA ST3 on B. garinii PBr (Borrelia garinii PBr (OspA ST3), UniProt B8F1J0, strain).
T8 construct: native OspA (ST3) on the bacterial surface of the primary isolate; also called ST 3- B. garinii PBr; source: endogenous, on live B. garinii PBr
The description is as above. As to conditions: one partner purified.

The target in assay [10] is T9, Native OspA ST4 on B. bavariensis PBi (Borrelia bavariensis PBi (OspA ST4), UniProt Q6LBF1, strain).
T9 construct: native OspA (ST4) on the bacterial surface of the primary isolate; also called ST 4- B. bavariensis PBi; source: endogenous, on live B. bavariensis PBi
The description is as above. The note with it: one partner purified.

T1 sequence (P0CL66 17-273): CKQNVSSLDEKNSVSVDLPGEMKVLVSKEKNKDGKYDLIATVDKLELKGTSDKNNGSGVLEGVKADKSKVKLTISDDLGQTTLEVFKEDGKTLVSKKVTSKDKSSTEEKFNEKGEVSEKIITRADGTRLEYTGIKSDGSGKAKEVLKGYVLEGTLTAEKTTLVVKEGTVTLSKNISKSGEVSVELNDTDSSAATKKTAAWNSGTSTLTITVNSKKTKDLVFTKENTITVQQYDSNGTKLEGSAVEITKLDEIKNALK
T2 sequence (P0A3N7 17-273): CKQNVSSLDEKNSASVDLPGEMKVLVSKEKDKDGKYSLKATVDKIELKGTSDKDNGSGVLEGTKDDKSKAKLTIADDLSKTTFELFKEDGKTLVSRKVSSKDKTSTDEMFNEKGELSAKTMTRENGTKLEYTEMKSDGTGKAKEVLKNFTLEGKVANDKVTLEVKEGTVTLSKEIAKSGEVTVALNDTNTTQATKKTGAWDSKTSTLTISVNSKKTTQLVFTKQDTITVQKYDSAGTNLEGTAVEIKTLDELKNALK
T5 sequence (P0A3N7 17-273): as above
T4 sequence (P0CL66 18-273): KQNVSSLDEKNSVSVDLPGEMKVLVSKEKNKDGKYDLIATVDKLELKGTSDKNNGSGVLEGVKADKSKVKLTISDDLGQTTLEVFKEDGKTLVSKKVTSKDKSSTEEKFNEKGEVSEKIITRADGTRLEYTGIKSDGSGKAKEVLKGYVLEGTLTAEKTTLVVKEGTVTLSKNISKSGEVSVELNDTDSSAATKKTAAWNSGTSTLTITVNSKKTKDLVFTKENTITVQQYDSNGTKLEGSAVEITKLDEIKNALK
T7 sequence (P0A3N7 17-273): as the sequence (P0A3N7 17-273) above

B1: 221-5, recombinant human monoclonal IgG1 (antibody, V domains shown)
VH: EVQLVQSGAEVKKPGESLKISCKGSGYSFTSYWIGWVRQMPGKGLEWMGIIYPGDSDTRYSPSFQGQVTISADKSISTAYLQWSSLKASDTAMYYCARHLGIDYFFGMDVWGQGTTVTVSS
VL: EIVLTQSPATLSLSPGERATLSCRASQSVSSYLAWYQQKPGQAPRLLIYDASTRDTGIPARFSGSGSGTDFTLTISSLEPEDFAVYYCQHHSNWYTFGQGTKLEIK
notes: source: Expi293 cells, transiently transfected with VH and VL plasmids, purified (Protein A)
For the molecule B1, the MFI in assay [1], in assay [2], in [3] and in [4] was over 4000 in each case. Besides, the equilibrium dissociation constant (Kd) in assay [5] stood at 0.52 nM.

B2: 221-20, recombinant human monoclonal IgG1 (antibody, V domains shown)
VH: EIQLVQSGTEVKKPGESLRISCRVSGYSFTNYWVAWVRQMPGKGLEWMGIIWPGDSDTRYSPSFQGQVTISADKSINTAYLQWSSLKASDTAVYYCARHLGIDYFFGLDVWGQGTTVTVSS
VL: EIVLTQSPATLSLSPGERATLSCRASQSVSSYLAWYQQKPGQAPRLLIYDASSRATGIPARFSGSGSGTDFTLTISSLEPEDFAVYYCQHLSNWYTFGQGTNLEIK
notes: as for B1
For B2, the MFI in assay [1], in assay [2], in assay [3] and in [4] was over 4000 in each case. The Kd in [5] was determined as 0.37 nM.

B3: 227-1, recombinant human monoclonal IgG1 (antibody, V domains shown)
VH: EVQLVQSGAEVKMPGESLKISCEVSGYSFTSYWIGWVRQMPGKGLEWMGIIYPGDSDTRYSPSFQGQVTISADKSISTAYLQWSSLKASDTAMYYCTRSISRSGPGFSLSWFFDYWGQGTLVTVSS
VL: AIQLTQSPSSLSASVGDRVTITCRASQGISNALAWYQQKPGKAPKLLIYDASSLERGVPSRFSGSGFGTDFTLTISSLQPEDFAIYYCQQFNGFPNTFGQGTRVEIK
notes: as for B1
As for B3, the binding result in assay [2] was “binds”; in assay [3] it was “no binding”; in [4] it was “binds”; in [6] it was “binds”; in assay [7], “binds”. Besides, the Kd in [5] came to 1.7 nM.

B4: 227-2, recombinant human monoclonal IgG1 (antibody, V domains shown)
VH: EVQVVQSGAEVKKPGESLKISCKGSGYSFTSYWIGWVRQMPGKGLEWMGIIYPGDSDTRYSPSFQGQVTISADKSISTAYLQWSSLKASDTAMYYCVRSISRSGPGYILSWFFDYWGQGSLVTVSS
VL: AIQLTQSPSSLSASVGDRVTITCRASQGISNALAWYQQKPGKAPKLLIYDASSLERGVPSRFSGSGFGTDFTLTISSLQPEDFAIYYCQQFNGFPNTFGQGTRVEIK
notes: as for B1
Regarding B4, the binding result in assay [2], in assay [4], in assay [6] and in assay [7] was “binds” in each case. In [5], the equilibrium dissociation constant (Kd) stood at 0.48 nM.

B5: 221-7, recombinant human monoclonal IgG1 (antibody, V domains shown)
VH: EVQLVQSGSEVKKPGESLKISCQVSGYSFTSYWIGWVRQMPGKGLERVGFIYPGDSDTRYSPSFQGQVTISADKSISTAYLQWSSLKASDTAMYYCARGILRYFDWFLDYWGQGTLVTVSS
VL: AIQLTQSPSSLSASVGDRVTITCRASQGISSGSAWYQQKPGKAPKLLIYDVSSLESGVPSRFSGSGSGTEFTLTISSLQPEDFATYYCQQFNSYLLTFGGGTKVEIK
notes: as for B1
Consider B5, for which the Kd in assay [5] was determined as 0.66 nM.

B6: 221-11, recombinant human monoclonal IgG1 (antibody, V domains shown)
VH: EVQLVQSGAEVKKPGESLKISCQSSGYRFTIYWIGWVRQMPGKGLEWMGIIWPGDSDTRYSPSFQGQVTISADKSISTAYLQWSSLKASDTAMYYCVRGIGRYSNWFLDYWGQGTLVTVSS
VL: AIQLTQSPSSLSASVGDRVTITCRASQGFSSALAWYQQKPGKAPKLLIYDASSLESGVPSRFSGSGSGTDFTLTISSLQPEDFATYYCQQFNSYPLTFGGGTKVEIK
notes: as for B1
In the case of B6, the binding result in assay [2], in assay [4], in assay [6] and in assay [7] was “binds” in each case. Besides, the Kd in assay [5] stood at 0.35 nM.

B7: 223-5, recombinant human monoclonal IgG1 (antibody, V domains shown)
VH: EVQLVQSGAEVKKPGESLKISCKGSGYSLTSYWIGWVRQMPGKGLEWMGIIWPGDSDTRYSPSFQGQVTISADKSISTAYLQWSSLKASDTAMYYCARYVTVGAFDFWGQGTMVTVSS
VL: AIQLTQSPSSLSASVGDRVTITCRASQGISSALAWYQQKPGKTPKLLIYDVSSLESGVPSRFSGSGCGTDFTLTISSVQPEDFATYYCQQFNSYLWTFGQGTKVEIK
notes: as for B1
As for B7, the equilibrium dissociation constant (Kd) in assay [5] was found to be 0.17 nM.

B8: 857-2, recombinant human monoclonal IgG1 (antibody, V domains shown)
VH: EVQLVQSGEEVKKPGESLKISCKGSGYKFSSYWIGWVRQMPGKGLEWMGIIFPGDSDKRYSPSFQGQVTISADKSISTVYLQWSSLKASDTAMYYCARHITTHTYRGFFDFWGQGTLVTVSS
VL: AIQLTQSPSSLSASVGDRVTITCRASQDISSALAWYQQKPGKAPKLLIYDVSSLESGVPSRFSGSGSGTDFTLTISSLQPEDFATYYCQQFNGYPHRLTFGGGTKVEIK
notes: as for B1
As to B8, the MFI in assay [1], in assay [2], in assay [3] and in assay [4] was over 4000 throughout. In addition, the Kd in assay [5] came to 0.3 nM.

B9: LA-2 IgG (antibody, V domains shown)
VH: QIQLVQSGPELKKPGETVKISCKASGYTFTDYSMYWVKQAPGKGLKRMGWINTETGEPTYADDFKGRFALSLDTSASTAYLHISNLKNEDTATYFCARGLDSWGQGTSVTVSS
VL: DIQMTQSPSSLSATLGGKVTITCKASQDINKYIAWYQHKPGKGPRLLIHYTSTLQPGNPSRFSGSGSGRDYSFSISNLEAEDIAIYYCLQYDNLQRTFGGGTKVEIK
notes: also called OspA ST 1-specific IgG mAb LA-2
In the case of B9, the binding result in assay [8], in assay [9], in assay [10], in [2], in assay [3] and in assay [4] was “no binding (tested: 10 µg/ml)” throughout. Besides, the MFI in assay [1] was over 7000. Moreover, the dissociation constant Kd in assay [5] was found to be 64 nM.
